{"source": "patent US20240294650A1", "about": "(Alector, published 2024)", "key": {"[1]": {"target": "T1, Full Axl (ECD domain of human Axl) (human, UniProt P30530 26-451)", "T1 construct": "also called human Axl ECD", "T1 sequence": "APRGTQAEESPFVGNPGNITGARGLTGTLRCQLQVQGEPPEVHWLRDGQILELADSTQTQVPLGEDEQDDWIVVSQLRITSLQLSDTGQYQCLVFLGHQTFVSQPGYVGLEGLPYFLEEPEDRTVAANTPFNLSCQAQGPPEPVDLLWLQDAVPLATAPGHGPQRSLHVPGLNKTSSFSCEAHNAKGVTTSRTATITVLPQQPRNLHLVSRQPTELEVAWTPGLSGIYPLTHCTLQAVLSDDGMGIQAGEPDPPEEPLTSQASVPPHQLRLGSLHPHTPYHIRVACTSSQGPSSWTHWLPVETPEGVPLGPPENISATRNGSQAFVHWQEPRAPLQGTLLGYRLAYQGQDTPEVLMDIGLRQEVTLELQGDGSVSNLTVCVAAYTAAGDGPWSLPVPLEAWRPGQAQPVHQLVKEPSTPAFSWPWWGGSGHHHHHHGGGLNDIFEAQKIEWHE", "assay": "SPR (data not shown)", "method": "(§1) Binding of anti-MerTK antibodies of the present disclosure to these domain-swapped chimera or deletion mutants was tested by Surface Plasmon Resonance (SPR) using Carterra LSA. Purified anti-MerTK antibodies were immobilized in duplicate on a HC30M chip (Carterra) by amine coupling, following the manufacturer's instructions (described previously).\n(§2) Supernatants containing the constructs were diluted 1:1 with running buffer containing 0.5 mg/mL BSA (HBS-TE, Carterra; BSA, Sigma) and injected over the immobilized antibodies. The surface was regenerated with 10 mM Glycine pH2.0 after each construct injection. Sensorgrams were analyzed using Carterra Epitope software to identify patterns of construct binding. Loss of binding to MerTK constructs with domains deleted or swapped in from Axl and/or gain of binding to Axl constructs with MerTK domains swapped in were evaluated. Data from these studies were used to construct a domain binding map for anti-MerTK antibodies and their binding to various domains of human MerTK."}, "[2]": {"target": "T2, endogenous murine MerTK on bone marrow-derived macrophages (mouse, UniProt Q60805 19-994)", "T2 construct": "whole, on cells; MFI on MerTK KO BMDM subtracted; also called BMDM WT-KO", "T2 sequence (looked up)": "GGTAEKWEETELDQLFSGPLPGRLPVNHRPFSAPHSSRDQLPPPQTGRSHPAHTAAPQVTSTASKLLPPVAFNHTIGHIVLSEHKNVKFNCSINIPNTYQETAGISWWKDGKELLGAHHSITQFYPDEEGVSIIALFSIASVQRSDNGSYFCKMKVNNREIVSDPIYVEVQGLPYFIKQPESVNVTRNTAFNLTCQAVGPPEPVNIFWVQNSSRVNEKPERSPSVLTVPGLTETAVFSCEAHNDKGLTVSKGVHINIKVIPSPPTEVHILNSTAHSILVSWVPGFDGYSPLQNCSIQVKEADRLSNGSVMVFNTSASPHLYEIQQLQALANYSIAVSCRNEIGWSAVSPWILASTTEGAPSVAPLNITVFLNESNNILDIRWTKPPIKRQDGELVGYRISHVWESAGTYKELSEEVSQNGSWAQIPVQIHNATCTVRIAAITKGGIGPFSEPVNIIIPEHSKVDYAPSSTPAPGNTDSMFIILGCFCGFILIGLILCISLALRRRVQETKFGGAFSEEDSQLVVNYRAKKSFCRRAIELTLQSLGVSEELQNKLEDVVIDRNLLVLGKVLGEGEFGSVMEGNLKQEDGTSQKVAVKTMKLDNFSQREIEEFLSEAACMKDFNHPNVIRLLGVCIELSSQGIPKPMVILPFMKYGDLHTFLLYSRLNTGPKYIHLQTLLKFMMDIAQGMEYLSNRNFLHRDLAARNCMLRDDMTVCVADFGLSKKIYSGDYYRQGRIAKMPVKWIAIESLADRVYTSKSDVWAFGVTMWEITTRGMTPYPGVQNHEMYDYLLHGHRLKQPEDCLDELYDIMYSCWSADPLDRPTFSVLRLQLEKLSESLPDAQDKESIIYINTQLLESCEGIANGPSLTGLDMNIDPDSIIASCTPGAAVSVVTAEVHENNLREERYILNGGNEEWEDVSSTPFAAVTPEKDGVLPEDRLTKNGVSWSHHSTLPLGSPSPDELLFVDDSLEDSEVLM", "assay": "FACS, mouse BMDM, WT minus MerTK KO", "method": "(§3) To determine whether recombinant anti-human MerTK antibodies of the present disclosure bind to human MerTK endogenously expressed on SK-MEL-5 cells and CHO cells overexpressing mouse MerTK (CHO-muMerTK OE cells), as compared to A375 and parental CHO cells as negative controls, the following experiments were performed. SK-MEL-5 cells, A375 cells, CHO-muMerTK OE cells, and CHO parental cells were plated at 100,000 cells/well. Anti-MerTK antibodies were added to the cells at 10 μg/ml. After 60 minutes on ice, cells were washed and then stained with PE-conjugated goat anti-human IgG antibody (Southern Biotech Cat #2040-09, Birmingham, AL) in the presence of Fc block solution on ice for 30 minutes, and then washed twice with cold FACS buffer (2% FBS in PBS). Mouse anti-human MerTK-PE conjugated (Biolegend, Clone 590H11G1E3) or anti-mouse MerTK-PE conjugated (ThermoFisher, Clone DS5MMER) antibodies were used as positive controls. Stained cells were acquired on a BD FACS Canto II cytometer and the mean fluorescence intensity (MFI) was calculated with FlowJo.\nTo confirm anti-MerTK antibody binding to endogenous murine MerTK, bone marrow-derived macrophages (BMDM) were isolated from MerTK wild type (WT) and knockout (KO) mice (The Jackson Laboratory, Cat #011122) using standard protocols. Briefly, cells isolated from the bone marrow were plated in the presence of 50 ng/ml M-CSF (R&D Systems, Cat #416-ML) for seven days to allow for differentiation into macrophages. Cell staining, FACs, and MFI were performed and calculated as described above."}, "[3]": {"target": "T3, MerTK N-terminal ECD Half-and-half chimera (human)", "T3 construct": "tested as culture supernatant; also called MerTK N-term half-and-half chimera; MerTK N-terminal ECD (NT-Ig1-Ig2) + Axl C-terminal ECD (FN1-FN2-JM)", "T3 chain": "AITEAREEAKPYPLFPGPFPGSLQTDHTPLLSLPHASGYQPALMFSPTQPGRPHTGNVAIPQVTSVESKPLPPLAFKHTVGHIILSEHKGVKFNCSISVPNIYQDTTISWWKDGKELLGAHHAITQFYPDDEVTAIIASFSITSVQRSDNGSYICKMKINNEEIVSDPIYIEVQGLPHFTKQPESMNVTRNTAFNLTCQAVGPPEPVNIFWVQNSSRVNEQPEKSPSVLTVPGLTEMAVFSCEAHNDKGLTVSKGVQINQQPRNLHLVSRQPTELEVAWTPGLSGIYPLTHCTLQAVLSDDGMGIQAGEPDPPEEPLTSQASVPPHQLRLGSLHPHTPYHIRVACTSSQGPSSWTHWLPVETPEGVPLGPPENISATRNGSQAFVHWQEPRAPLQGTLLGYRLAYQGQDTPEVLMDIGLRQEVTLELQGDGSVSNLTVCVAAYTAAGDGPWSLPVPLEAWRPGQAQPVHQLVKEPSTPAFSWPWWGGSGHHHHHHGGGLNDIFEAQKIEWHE", "assay": "SPR, construct supernatant over immobilised Ab", "method": "as §1, §2"}, "[4]": {"target": "T4, mouse MerTK overexpressed on CHO cells (mouse, UniProt Q60805 19-994)", "T4 construct": "whole, on cells; also called CHO-muMerTK OE", "T4 sequence (looked up)": "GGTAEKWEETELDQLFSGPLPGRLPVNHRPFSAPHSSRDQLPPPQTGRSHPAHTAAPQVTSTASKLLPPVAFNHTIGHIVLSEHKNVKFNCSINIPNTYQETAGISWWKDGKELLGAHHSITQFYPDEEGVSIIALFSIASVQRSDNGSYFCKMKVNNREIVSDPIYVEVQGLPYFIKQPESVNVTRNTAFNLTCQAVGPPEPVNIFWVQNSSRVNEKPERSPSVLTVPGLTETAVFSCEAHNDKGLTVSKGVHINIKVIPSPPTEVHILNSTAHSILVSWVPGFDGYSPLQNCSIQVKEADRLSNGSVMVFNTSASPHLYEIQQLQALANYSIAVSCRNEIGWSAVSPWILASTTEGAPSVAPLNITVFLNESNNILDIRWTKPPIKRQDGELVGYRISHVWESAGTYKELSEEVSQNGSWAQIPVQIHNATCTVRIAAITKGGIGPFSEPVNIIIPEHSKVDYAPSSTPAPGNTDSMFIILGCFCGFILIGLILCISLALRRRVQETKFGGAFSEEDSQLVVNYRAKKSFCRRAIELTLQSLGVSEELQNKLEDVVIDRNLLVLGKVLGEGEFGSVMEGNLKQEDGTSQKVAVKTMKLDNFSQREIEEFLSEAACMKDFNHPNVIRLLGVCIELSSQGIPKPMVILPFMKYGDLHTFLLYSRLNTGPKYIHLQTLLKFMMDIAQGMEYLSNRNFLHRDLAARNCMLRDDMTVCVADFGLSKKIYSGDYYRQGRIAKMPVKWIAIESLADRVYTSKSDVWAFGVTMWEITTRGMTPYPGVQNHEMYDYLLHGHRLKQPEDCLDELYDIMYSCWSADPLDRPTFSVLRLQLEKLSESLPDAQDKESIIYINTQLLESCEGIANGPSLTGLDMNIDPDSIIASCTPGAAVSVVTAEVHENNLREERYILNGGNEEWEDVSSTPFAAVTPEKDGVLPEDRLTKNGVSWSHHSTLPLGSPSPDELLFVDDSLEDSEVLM", "assay": "FACS, CHO-muMerTK OE cells, 10 ug/ml", "method": "as §3"}}}
{"binder": "MTK-205 (antibody, human IgG1, V domains shown) VH: EVQLQQSGPELVKPGASVKISCKTSGYTFTEYIMHWVKQSHGKSLEWIGGINPNNLGIIYNQKFKGKATLTVDKSSSTAYMELRSLTSEDSEVYYCARDGYFGFDYWGQGTTLKVSS VL: DIVMTQSHKFMSTSVGDRVSITCKASQDVGTSVAWYQQKPGHSPKLLIYWTSTRRTGVPDRFTGSGSGTDFTLTISNVQSEDLADYFCHQYNSYPLTFGAGTKLELK", "values": [{"measurement": "binding result", "setting": "[1]", "result": "no binding"}, {"measurement": "MFI", "setting": "[2]", "result": 737, "unit": "MFI"}, {"measurement": "binding result", "setting": "[3]", "result": "no binding"}, {"measurement": "MFI", "setting": "[4]", "result": 240, "unit": "MFI"}]}
